One may read the Km as the substrate concentration at which the rate is half of its maximum. As a reminder, the Vmax is the rate approached at saturating substrate.

For this data set, the system named is T1, N=C(N)NCCC[C@H](NC(=O)[C@H](Cc1ccccc1)NC(=O)[C@@H]1CCCN1)C(=O)NCc1ccccc1.
T1 construct: dialyzed or gel-filtered human urine in the general A1 assay
Briefly: Km and Vmax of substrates with purified human urinary kallikrein (Lineweaver-Burk double reciprocal plot). The class given is biochemical. The following applies: other: 62.5 ng purified enzyme, 0.05 M tris-HCl pH 9.5, 37° C., 15 minutes. Here is the method: The double reciprocal plot method of H. Lineweaver and D. Burk (J.Am.Chem.Soc. 56, 658 (1934)) was used to estimate Km and Vmax for these substrates. Purified human urinary kallikrein prepared as described by Oza, N. B. and Ryan, J., supra, was used in this study. Reactions were conducted at 37° C. for 15 minutes with 62.5 ng of enzyme and the indicated amount of substrate, in 0.05 M tris-HCl pH 9.5. Reactions were terminated by the addition of a nine-fold excess of 0.1 N NaOH. The ^3 H-labeled product was separated from substrate by extraction with an equal volume (1 ml) of toluene. A 0.5 ml aliquot of the toluene phase was transferred to a scintillation vial containing a toluene-based scintillation fluid and counted. Results for H-ProPheArg-[^3 H]-benzylamide are shown in FIG. 1, and for H-ProPheArg-[^3 H]anilide in FIG. 2. The units of l/v were nmol^-1 min. Units of l/S were μmole^-1.liter.

For the substance human urinary kallikrein (Homo sapiens), the Km amounted to 3.0 µM and the Vmax was determined as 0.88 mmol/min/mg.

The values are drawn from patent US4327178A, “Urinary kallikrein assay: specific substrates and assay method” (University of Miami, priority 1981, dated 1982).
